From patent US20260035484A1 (LONGBIO PHARMA SUZHOU, published 2026) come the findings set out here.

As a reminder, the Kd is a measure of binding affinity in units of concentration. As usually defined, the IC50 is the point on the concentration scale where inhibition reaches its midpoint.

For assay [1], the target named is T1, human IgE (abcam, Product code ab65866) (human, UniProt P01854-1 1-428).
T1 construct: also called antigen human IgE
The experiment in a line: MSD-SET, solution equilibrium titration.
Protocol: The solution equilibrium titration (SET) was performed in PBS+0.1% of IgG-free BSAbuffer (PBSF), where the antigen human IgE (purchased from: abcam, Product code: ab65866) was kept constant at 10-100 pM and incubated with 3-fold serial dilutions of humanized antibodies starting from 0.1-100 nM. […] 20 nM of antibodies diluted in PBS were coated onto standard binding MSD-ECL plates (purchased from MSD, Product code: L15XA-3) at 4° C. overnight. The MSD-ECL plates were blocked with 1% of Casein for 30 min while shaking at 700 rpm, and then washed with washing buffer (PBS+0.05% Tween 20) three times. The samples incubated with 2-fold serial dilutions of antigen human IgE and humanized antibodies were added into the MSD-ECL plates, incubated for 150 s while shaking at 700 rpm, and then washed once. […] 1× reading buffer T (purchased from MSD, Product code: R92TC-1) was added to read on an MSD Sector Imager instrument (Model: MESO QuickPlex SQ 120). In a Prism-GraphPad6 software, the percentage of free antigens was plotted as a function of titrated antibodies and fitted into a quadratic equation to extract the KD values.

Assay [2] deals with T2, biotin-labelled human IgE-Fc (human, UniProt P01854 104-427, biotin-labelled).
T2 construct: also called recombinant human IgE-Fc protein; Fc region (CH2-4) protein of human IgE
The experiment in a line: blocking ELISA: inhibition of biotin-labelled human IgE-Fc binding to coated FcεRIα-Fc. On the procedure:
(§1) The method specifically included diluting the recombinantly expressed human FcεRIα-Fc protein (with its amino acid sequence as set forth in SEQ ID NO: 51) with PBS to a final concentration of 1 μg/mL, coating the ELISA plates (purchased from Corning, Product code: 42592) at 100 μL per well, and keeping at 4° C. overnight. The next day, the coating solution was discarded. The wells were blocked with 2.5% skimmed milk dissolved in PBS for 1 hour and washed with PBS containing 0.05% Tween-20. […] After discarding the supernatant, the wells were washed with PBS containing 0.05% Tween-20 and detected by using HRP-labelled streptavidin (purchased from Sangon Biotech, Product code: D111054-0001).
Background: ELISA stands for enzyme-linked immunosorbent assay.

The target in assay [3] is T2, biotin-labelled human IgE-Fc. As to the kind of experiment: blocking ELISA: FcεRIα-Fc coated, biotin-labelled human IgE-Fc (100 ng/mL) premixed with the antibody, streptavidin-HRP; blocked ligand FcεRIα-Fc. As to the method: as §1
The target is the same in assay [4]. The experiment in a line: blocking ELISA, inhibition ratio: FcεRIα-Fc coated, biotin-labelled human IgE-Fc (100 ng/mL) premixed with the antibody, streptavidin-HRP; blocked ligand FcεRIα-Fc. As to the method:
as §1, with “[…],” for “μg/mL,”, “diluted with” for “detected by using”, “D111054-0001) at 1:1000 for detection. The inhibition ratio of different antibodies at different concentrations was calculated following the formula below: Inhibition ratio at antibody concentration of X (%)=(OD₄₅₀ readout at antibody concentration of 0-OD₄₅₀ readout at antibody concentration of X)/OD₄₅₀ readout at antibody concentration of 0×100.” for “D111054-0001).”

For assay [5] the target is unchanged. As to the kind of experiment: blocking ELISA: FcεRIα-Fc coated, biotin-labelled human IgE-Fc (1 µg/mL) premixed with the antibody, streptavidin-HRP; blocked ligand FcεRIα-Fc. On the procedure:
The next day, the coating solution was discarded. The wells were blocked with 2.5% skimmed milk dissolved in PBS for 1 hour and washed with PBS containing 0.05% Tween-20. […] After discarding the supernatant, the wells were washed with PBS containing 0.05% Tween-20 and diluted with HRP-labelled streptavidin (purchased from Sangon Biotech, Product code: D111054-0001) at 1:1000 for detection.

T2 sequence (P01854 other isoform, or with tags, fused parts or gaps limits assumed): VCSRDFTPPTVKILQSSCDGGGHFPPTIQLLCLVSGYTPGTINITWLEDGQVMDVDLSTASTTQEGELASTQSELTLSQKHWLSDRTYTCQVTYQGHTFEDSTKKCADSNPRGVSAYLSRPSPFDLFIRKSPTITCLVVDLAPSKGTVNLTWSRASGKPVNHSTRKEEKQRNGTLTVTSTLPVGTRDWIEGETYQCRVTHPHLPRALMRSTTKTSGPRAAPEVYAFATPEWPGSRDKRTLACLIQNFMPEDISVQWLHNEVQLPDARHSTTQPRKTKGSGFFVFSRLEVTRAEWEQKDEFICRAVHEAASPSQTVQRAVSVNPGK
T1 sequence (P01854 other isoform, or with tags, fused parts or gaps): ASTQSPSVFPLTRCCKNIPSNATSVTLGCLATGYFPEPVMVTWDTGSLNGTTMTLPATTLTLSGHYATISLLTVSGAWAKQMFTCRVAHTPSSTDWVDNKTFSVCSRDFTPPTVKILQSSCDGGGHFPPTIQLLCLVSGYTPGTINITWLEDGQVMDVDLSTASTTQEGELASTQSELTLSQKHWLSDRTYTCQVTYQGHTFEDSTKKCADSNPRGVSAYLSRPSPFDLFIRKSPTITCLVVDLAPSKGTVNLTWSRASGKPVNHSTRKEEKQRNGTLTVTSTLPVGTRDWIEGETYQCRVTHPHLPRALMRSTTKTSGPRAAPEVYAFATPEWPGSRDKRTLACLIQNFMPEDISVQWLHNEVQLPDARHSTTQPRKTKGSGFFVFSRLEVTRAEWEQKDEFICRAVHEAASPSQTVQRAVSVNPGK

B1: Humanized antibody SE2 (antibody, human IgG1, kappa, V domains shown)
VH: QVQLQESGPGLVKPSQTLSLTCTVSGYSITSDYAWNWIRQPPGNGLEWMGYISYSGSTRYNPSLKSRITISRDTSKNQFSLKLSSVTAADTAVYFCVYGSSQRFFDYWGQGTLVTVSS
VL: DILMTQSPDSLAVSLGERATINCKASQDVSIDVAWYQQKPGQPPKLLIYSASFRYAGVPDRFSGSGSGTDFTLTISSLQAEDVAVYYCQQHYSLFTFGSGTKLEIKR
notes: also called SE2 humanized antibody; humanized SE2
For the molecule B1, the Kd in assay [1] came out at 10.9 pM. The IC50 in assay [2] is approximately 0.417 µg/mL.

B2: Humanized antibody SE5 (antibody, human IgG1, kappa, V domains shown)
VH: QVQLQESGPGLVKPSQTLSLTCTVSGYSITSDYAWNWIRQPPGNGLEWLGYINYSGTTRYNPSLKSRITISRDTSKNQFSLKLSSVTAADTAVYFCVYGSSQRFFDYWGQGTLVTVSS
VL: DIVMTQSPDSLAVSLGERATINCKASQDVSIDVAWYQQKPGQPPKLLIYSASWRYAGVPDRFSGSRSGTDYTLTISSLQAEDVAVYYCQQHYNLFTFGSGTKLEIKR
notes: also called SE5 humanized antibody; humanized SE5
In the case of B2, in assay [3], the “IC50 (read off the curve)” value was approximately 0.06 µg/mL. In assay [1], this molecule had a Kd of 10 pM. In addition, the concentration for half-maximal inhibition (IC50) in assay [2] was approximately 266 pM.

B3: chimeric antibody SE2 (mouse SE2 variable regions, human IgG1/kappa constant regions) (antibody, V domains shown)
VH: DVQLLESGPGLVKPSQSLSLTCTVTGYSITSDYAWNWIRQFPGNKLEWMGYISYSGSTRYNPSLKSRISISRDTSKNQFFLQLNSVTSEDTATYFCVYGSSQRFFDYWGQGTTLTVSS
VL: DILMTQSHKFMSTSIGDRVSITCKASQDVSIDVAWYHQKPGQSPKLLIYSASFRYAGVPDRFTGSGSGTDFTLTISSVQAEDLAVYYCQQHYSLFTFGSGTKLEIKR
notes: also called chimeric recombinant monoclonal antibody
B3: in assay [4], the “IC50 (read off the curve)” value is approximately 0.2 µg/mL.

B4: mouse-derived monoclonal antibody SE2 (antibody, V domains shown)
VH: DVQLLESGPGLVKPSQSLSLTCTVTGYSITSDYAWNWIRQFPGNKLEWMGYISYSGSTRYNPSLKSRISISRDTSKNQFFLQLNSVTSEDTATYFCVYGSSQRFFDYWGQGTTLTVSS
VL: DILMTQSHKFMSTSIGDRVSITCKASQDVSIDVAWYHQKPGQSPKLLIYSASFRYAGVPDRFTGSGSGTDFTLTISSVQAEDLAVYYCQQHYSLFTFGSGTKLEIK
notes: the cloning primer was homologous to the mouse IgG1 heavy chain constant region; also called SE2 mouse hybridoma antibody; mouse-derived parent antibody of SE2
Take B4: the “IC50 (read off the curve)” value in assay [5] was approximately 0.3 µg/mL; in assay [4], approximately 0.2 µg/mL.

B5: mouse-derived monoclonal antibody SE5 (antibody, V domains shown)
VH: DVQLLESGPGLVKPSQSLSLTCTVTGYSITSDYAWNWIRQFPGNKLEWLGYINYSGTTRYNPSLKSRISISRDTSKNQFFLQLNSVTSEDTATYFCVYGSSQRFFDYWGQGTTLTVSS
VL: DIVMTQSHKFMSTSVGDRVSITCKASQDVSIDVAWYQQKPGQSPKLLIYSASWRYAGVPDRFTGSRSGTDYTLTISSVQAEDLAVYYCQQHYNLFTFGSGTKLEIQ
notes: the cloning primer was homologous to the mouse IgG1 heavy chain constant region; also called SE5 mouse hybridoma antibody; mouse-derived parent antibody of SE5
B5: the “IC50 (read off the curve)” value in assay [3] is approximately 0.07 µg/mL; in assay [5], approximately 0.2 µg/mL; in assay [4] it was approximately 0.08 µg/mL.

B6: chimeric antibody SE5 (mouse SE5 variable regions, human IgG1/kappa constant regions) (antibody, V domains shown)
VH: DVQLLESGPGLVKPSQSLSLTCTVTGYSITSDYAWNWIRQFPGNKLEWLGYINYSGTTRYNPSLKSRISISRDTSKNQFFLQLNSVTSEDTATYFCVYGSSQRFFDYWGQGTTLTVSS
VL: DIVMTQSHKFMSTSVGDRVSITCKASQDVSIDVAWYQQKPGQSPKLLIYSASWRYAGVPDRFTGSRSGTDYTLTISSVQAEDLAVYYCQQHYNLFTFGSGTKLEIQR
notes: as for B3
For the molecule B6, in assay [4], the “IC50 (read off the curve)” value was approximately 0.08 µg/mL.
